The values below come from patent US20240417439A1, “RECOMBINANT POLYPEPTIDE FOR DISRUPTING INTERACTION OF EAG2 AND KVß2 AND THERAPEUTIC APPLICATIONS THEREOF IN CANCER TREATMENT” (The Hospital for Sick Children, priority 2021, published 2024).

Data set [1] in a line: peptide treatment of non-tumor-bearing mice. The class given is in vivo. How it is done: To further determine the impact of peptide treatment on mouse physiology, non-tumor-bearing mice were treated with K59-78^TAT or K90-114^TAT.
In data set [2] the target is T1, human voltage-gated potassium channel subfamily H member 5 (KCNH5, EAG2) (human, UniProt Q8NCM2 1-988).
T1 construct: Full length EAG2 expressed in HEK293T cells and tested by co-IP from lysates; This id also stands for endogenous human EAG2 in lysates of GBM cells and of human fetal neural progenitor cells; also called full length EAG2
T1 sequence: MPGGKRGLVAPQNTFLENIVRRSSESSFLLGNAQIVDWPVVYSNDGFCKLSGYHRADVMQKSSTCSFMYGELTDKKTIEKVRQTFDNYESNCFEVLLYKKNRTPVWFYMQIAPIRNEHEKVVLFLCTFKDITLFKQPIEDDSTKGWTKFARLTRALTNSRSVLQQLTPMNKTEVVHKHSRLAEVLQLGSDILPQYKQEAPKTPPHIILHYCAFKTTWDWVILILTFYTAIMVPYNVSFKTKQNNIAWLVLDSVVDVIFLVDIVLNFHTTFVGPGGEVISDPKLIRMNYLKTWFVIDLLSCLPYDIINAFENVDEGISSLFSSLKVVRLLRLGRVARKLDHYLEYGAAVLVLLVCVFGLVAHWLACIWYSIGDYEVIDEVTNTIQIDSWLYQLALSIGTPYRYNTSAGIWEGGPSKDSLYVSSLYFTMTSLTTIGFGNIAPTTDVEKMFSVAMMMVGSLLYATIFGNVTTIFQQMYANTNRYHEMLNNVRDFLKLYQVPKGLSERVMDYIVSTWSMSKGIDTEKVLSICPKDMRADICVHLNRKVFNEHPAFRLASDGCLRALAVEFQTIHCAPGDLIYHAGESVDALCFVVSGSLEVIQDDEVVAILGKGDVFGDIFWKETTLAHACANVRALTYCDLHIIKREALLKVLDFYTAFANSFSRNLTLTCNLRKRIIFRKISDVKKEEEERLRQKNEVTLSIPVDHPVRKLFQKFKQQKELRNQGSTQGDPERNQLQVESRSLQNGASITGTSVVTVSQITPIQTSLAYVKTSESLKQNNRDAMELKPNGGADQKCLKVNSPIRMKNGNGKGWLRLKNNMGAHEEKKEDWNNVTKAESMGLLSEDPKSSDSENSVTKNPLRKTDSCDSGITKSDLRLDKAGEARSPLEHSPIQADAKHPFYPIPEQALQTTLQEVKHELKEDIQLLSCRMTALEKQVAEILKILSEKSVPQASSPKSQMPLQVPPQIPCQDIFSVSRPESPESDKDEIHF
The experiment in a line: co-IP in HEK293T cells.

Data set [3] addresses T1, human voltage-gated potassium channel …. The data set is described as follows: co-IP of overexpressed proteins in HEK293T cells.
Data set [4] shares this target. The data set is described as follows: co-IP in HEK293T cells (FIG. 26).
Method: Co-IPs of overexpressed proteins are performed using HEK293T cells.

No end group written: not given here.

For “GRKKRRQRRRPQGSGSGSYAAGKAEVVLGNIIKKKGWRRSSLV [K90-114^TAT]”, in data set [1], the “pathological features of internal organs (heart, kidney, liver, lung)” value was “did not reveal pathological features”. Besides, in data set [1] (K59-78^TAT versus K90-114^TAT), the body weight result is reported as “comparable body weight” and the survival result is reported as “comparable”.

B1: Kvβ2 isoform 5 (other, human, UniProt Q13303-5 1-395, looked up)
chain: MYPESTTGSPARLSLRQTGSPGMIYSTRYGSPKRQLQFYRNLGKSGLRVSCLGLGTWVTFGGQITDEMAEQLMTLAYDNGINLFDTAEVYAAGKAEVVLGNIIKKKGWRRSSLVITTKIFWGGKAETERGLSRKHIIEGLKASLERLQLEYVDVVFANRPDPNTPMEETVRAMTHVINQGMAMYWGTSRWSSMEIMEAYSVARQFNLTPPICEQAEYHMFQREKVEVQLPELFHKIGVGAMTWSPLACGIVSGKYDSGIPPYSRASLKGYQWLKDKILSEEGRRQQAKLKELQAIAERLGCTLPQLAIAWCLRNEGVSSVLLGASNADQLMENIGAIQVRVRGPAGQRAHPSPSPVQCILPGSSCVPGSVLGTQDAPVNHQSCAPGELAFQQEQT
notes: Only the isoform number is printed; Whether it matches the UniProt isoform numbering is not confirmed
For the molecule B1, in data set [2], the binding result is “no binding”.

B2: Kvß2 truncation mutant f3 (239-367 aa) (other)
chain: GAMTWSPLACGIVSGKYDSGIPPYSRASLKGYQWLKDKILSEEGRRQQAKLKELQAIAERLGCTLPQLAIAWCLRNEGVSSVLLGASNADQLMENIGAIQVLPKLSSSIIHEIDSILGNKPYSKKDYRS
notes: Expressed in HEK293T cells
In the case of B2, the binding result in data set [3] is “no binding”.

B3: Kvβ2 isoform 3 (other, human, UniProt Q13303-3 1-415, looked up)
chain: MLSMTYSESLRSVSSRCHSEWALHPVRQTDTLELQRLREVRAAAQARNMESFLRMHGLSLDGCTAQRTGMKYRNLGKSGLRVSCLGLGTWVTFGGQITDEMAEQLMTLAYDNGINLFDTAEVYAAGKAEVVLGNIIKKKGWRRSSLVITTKIFWGGKAETERGLSRKHIIEGLKASLERLQLEYVDVVFANRPDPNTPMEGDPFSSSKSRTFIIEETVRAMTHVINQGMAMYWGTSRWSSMEIMEAYSVARQFNLTPPICEQAEYHMFQREKVEVQLPELFHKIGVGAMTWSPLACGIVSGKYDSGIPPYSRASLKGYQWLKDKILSEEGRRQQAKLKELQAIAERLGCTLPQLAIAWCLRNEGVSSVLLGASNADQLMENIGAIQVLPKLSSSIIHEIDSILGNKPYSKKDYRS
notes: as for B1
B3: in data set [2], the binding result was “no binding”.

B4: Kvß2 truncation mutant f5 (239-316 aa) (other)
chain: GAMTWSPLACGIVSGKYDSGIPPYSRASLKGYQWLKDKILSEEGRRQQAKLKELQAIAERLGCTLPQLAIAWCLRNEG
notes: Expressed in HEK293T cells
On to B4, for which the binding result in data set [3] is given as “no binding”.

B5: Kvβ2 isoform 2 (other, human, UniProt Q13303-2 1-353, looked up)
chain: MYPESTTGSPARLSLRQTGSPGMIYRNLGKSGLRVSCLGLGTWVTFGGQITDEMAEQLMTLAYDNGINLFDTAEVYAAGKAEVVLGNIIKKKGWRRSSLVITTKIFWGGKAETERGLSRKHIIEGLKASLERLQLEYVDVVFANRPDPNTPMEETVRAMTHVINQGMAMYWGTSRWSSMEIMEAYSVARQFNLTPPICEQAEYHMFQREKVEVQLPELFHKIGVGAMTWSPLACGIVSGKYDSGIPPYSRASLKGYQWLKDKILSEEGRRQQAKLKELQAIAERLGCTLPQLAIAWCLRNEGVSSVLLGASNADQLMENIGAIQVLPKLSSSIIHEIDSILGNKPYSKKDYRS
notes: as for B1
With B5, the binding result in data set [2] was “no binding”.

B6: Kvß2 truncation mutant f9 (1-355 aa) (other)
chain: MYPESTTGSPARLSLRQTGSPGMIYSTRYGSPKRQLQFYRNLGKSGLRVSCLGLGTWVTFGGQITDEMAEQLMTLAYDNGINLFDTAEVYAAGKAEVVLGNIIKKKGWRRSSLVITTKIFWGGKAETERGLSRKHIIEGLKASLERLQLEYVDVVFANRPDPNTPMEETVRAMTHVINQGMAMYWGTSRWSSMEIMEAYSVARQFNLTPPICEQAEYHMFQREKVEVQLPELFHKIGVGAMTWSPLACGIVSGKYDSGIPPYSRASLKGYQWLKDKILSEEGRRQQAKLKELQAIAERLGCTLPQLAIAWCLRNEGVSSVLLGASNADQLMENIGAIQVLPKLSSSIIHEIDSIL
notes: Expressed in HEK293T cells
For the molecule B6, in data set [3], the binding result is “no binding”.

B7: Kvß2 truncation mutant f6 (317-367 aa) (other)
chain: VSSVLLGASNADQLMENIGAIQVLPKLSSSIIHEIDSILGNKPYSKKDYRS
notes: Expressed in HEK293T cells
With B7, in data set [3], the binding result is “no binding”.

B8: Kvß2 truncation mutant f2 (79-316 aa) (other)
chain: NGINLFDTAEVYAAGKAEVVLGNIIKKKGWRRSSLVITTKIFWGGKAETERGLSRKHIIEGLKASLERLQLEYVDVVFANRPDPNTPMEETVRAMTHVINQGMAMYWGTSRWSSMEIMEAYSVARQFNLTPPICEQAEYHMFQREKVEVQLPELFHKIGVGAMTWSPLACGIVSGKYDSGIPPYSRASLKGYQWLKDKILSEEGRRQQAKLKELQAIAERLGCTLPQLAIAWCLRNEG
notes: Expressed in HEK293T cells
Consider B8, for which the binding result in data set [4] is recorded as “binds”.

B9: Kvß2 truncation mutant f8 (1-342 aa) (other)
chain: MYPESTTGSPARLSLRQTGSPGMIYSTRYGSPKRQLQFYRNLGKSGLRVSCLGLGTWVTFGGQITDEMAEQLMTLAYDNGINLFDTAEVYAAGKAEVVLGNIIKKKGWRRSSLVITTKIFWGGKAETERGLSRKHIIEGLKASLERLQLEYVDVVFANRPDPNTPMEETVRAMTHVINQGMAMYWGTSRWSSMEIMEAYSVARQFNLTPPICEQAEYHMFQREKVEVQLPELFHKIGVGAMTWSPLACGIVSGKYDSGIPPYSRASLKGYQWLKDKILSEEGRRQQAKLKELQAIAERLGCTLPQLAIAWCLRNEGVSSVLLGASNADQLMENIGAIQVLPK
notes: Expressed in HEK293T cells
Turning to B9, in data set [3], the binding result is “binds”.

B10: Kvß2 isoform 4 (other)
chain: MAEQLMTLAYDNGINLFDTAEVYAAGKAEVVLGNIIKKKGWRRSSLVITTKIFWGGKAETERGLSRKHIIEGLKASLERLQLEYVDVVFANRPDPNTPMEETVRAMTHVINQGMAMYWGTSRWSSMEIMEAYSVARQFNLTPPICEQAEYHMFQREKVEVQLPELFHKIGVGAMTWSPLACGIVSGKYDSGIPPYSRASLKGYQWLKDKILSEEGRRQQAKLKELQAIAERLGCTLPQLAIAWCLRNEGVSSVLLGASNADQLMENIGAIQVLPKLSSSIIHEIDSILGNKPYSKKDYRS
notes: Expressed in HEK293T cells; also called Kvβ2 isoform 4; Kvß2 splice isoform 4
For B10, in data set [2], the binding result is “binds”.

B11: Kvß2 truncation mutant f4 (79-158 aa) (other)
chain: NGINLFDTAEVYAAGKAEVVLGNIIKKKGWRRSSLVITTKIFWGGKAETERGLSRKHIIEGLKASLERLQLEYVDVVFAN
notes: Expressed in HEK293T cells
Consider B11, for which the binding result in data set [4] is “binds”.

B12: Kvß2 truncation mutant f7 (1-316 aa) (other)
chain: MYPESTTGSPARLSLRQTGSPGMIYSTRYGSPKRQLQFYRNLGKSGLRVSCLGLGTWVTFGGQITDEMAEQLMTLAYDNGINLFDTAEVYAAGKAEVVLGNIIKKKGWRRSSLVITTKIFWGGKAETERGLSRKHIIEGLKASLERLQLEYVDVVFANRPDPNTPMEETVRAMTHVINQGMAMYWGTSRWSSMEIMEAYSVARQFNLTPPICEQAEYHMFQREKVEVQLPELFHKIGVGAMTWSPLACGIVSGKYDSGIPPYSRASLKGYQWLKDKILSEEGRRQQAKLKELQAIAERLGCTLPQLAIAWCLRNEG
notes: Expressed in HEK293T cells
In the case of B12, the binding result in data set [3] is on record as “binds”.

B13: Kvß2 truncation mutant f1 (1-158 aa) (other)
chain: MYPESTTGSPARLSLRQTGSPGMIYSTRYGSPKRQLQFYRNLGKSGLRVSCLGLGTWVTFGGQITDEMAEQLMTLAYDNGINLFDTAEVYAAGKAEVVLGNIIKKKGWRRSSLVITTKIFWGGKAETERGLSRKHIIEGLKASLERLQLEYVDVVFAN
notes: Expressed in HEK293T cells
In the case of B13, in data set [3], the binding result is recorded as “binds”.
